The source of these data is paper PMC11789017, “Preventing inappropriate signals pre- and post-ligand perception by a toggle switch mechanism of ERECTA” (Proceedings of the National Academy of Sciences of the …, 2025).

The labels stand for the following.
B1: MBP-fused full-length ER cytoplasmic domain (MBP-ER_CD) (domain or fragment, Arabidopsis, UniProt Q42371 602-976, looked up)
chain: CRPHNPPPFLDGSLDKPVTYSTPKLVILHMNMALHVYEDIMRMTENLSEKYIIGHGASSTVYKCVLKNCKPVAIKRLYSHNPQSMKQFETELEMLSSIKHRNLVSLQAYSLSHLGSLLFYDYLENGSLWDLLHGPTKKKTLDWDTRLKIAYGAAQGLAYLHHDCSPRIIHRDVKSSNILLDKDLEARLTDFGIAKSLCVSKSHTSTYVMGTIGYIDPEYARTSRLTEKSDVYSYGIVLLELLTRRKAVDDESNLHHLIMSKTGNNEVMEMADPDITSTCKDLGVVKKVFQLALLCTKRQPNDRPTMHQVTRVLGSFMLSEQPPAATDTSATLAGSCYVDEYANLKTPHSVNCSSMSASDAQLFLRFGQVISQNSE
notes: ERECTA (ER) receptor kinase, Arabidopsis, cytoplasmic domain (juxtamembrane domain, kinase domain and C-terminal tail); source: recombinant, expressed and purified; not shown: MBP, N-terminal, kept

The target in assay [1] is GST-BKI1 (BRI1 KINASE INHIBITOR 1) (UniProt Q9FMZ0). Nature of the assay: BLI; recombinantly purified GST-BKI1 or GST-PUB30 and MBP-ER_CD variants at seven concentrations (156.25, 312.5, 625, 1,250, 2,500, 5,000 and 10,000 nM); three independent experiments; who was immobilised is in SI Appendix. A general note: Biolayer interferometry detects binding as a change in optical thickness at a sensor tip.

The target in assay [2] is GST-PUB30 (U-box E3 ligase PUB30) (UniProt Q058P4). Described as above.
The target of assay [3] is T1, GST-PUB30 (U-box E3 ligase PUB30) (UniProt Q058P4 1-448).
T1 construct: plant U-box (PUB) E3 ubiquitin ligase PUB30; Tag end from the order of the printed name; source: recombinantly purified; not shown: GST, N-terminal, kept
T1 sequence (looked up): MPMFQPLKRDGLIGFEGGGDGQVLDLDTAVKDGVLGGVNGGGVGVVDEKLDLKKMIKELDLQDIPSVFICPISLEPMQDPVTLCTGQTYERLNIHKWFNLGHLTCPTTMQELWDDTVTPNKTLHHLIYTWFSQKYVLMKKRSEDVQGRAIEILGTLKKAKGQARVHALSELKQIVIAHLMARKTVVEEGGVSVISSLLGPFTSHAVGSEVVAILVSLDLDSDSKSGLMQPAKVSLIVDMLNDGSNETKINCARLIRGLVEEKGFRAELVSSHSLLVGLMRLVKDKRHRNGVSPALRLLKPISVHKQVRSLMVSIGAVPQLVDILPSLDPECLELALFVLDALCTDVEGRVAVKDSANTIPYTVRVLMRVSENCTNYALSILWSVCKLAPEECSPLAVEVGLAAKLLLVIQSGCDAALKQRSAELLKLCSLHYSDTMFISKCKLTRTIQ
Described as above. Conditions: both partners purified.

The target of assay [4] is T2, MBP-ER_CD_(T/S8E), phosphomimetic version (Arabidopsis, UniProt Q42371 602-976, Thr947 (T/S8E) | Ser950 (T/S8E) | Ser954 (T/S8E) | Ser955 (T/S8E) | Ser957 …).
T2 sequence: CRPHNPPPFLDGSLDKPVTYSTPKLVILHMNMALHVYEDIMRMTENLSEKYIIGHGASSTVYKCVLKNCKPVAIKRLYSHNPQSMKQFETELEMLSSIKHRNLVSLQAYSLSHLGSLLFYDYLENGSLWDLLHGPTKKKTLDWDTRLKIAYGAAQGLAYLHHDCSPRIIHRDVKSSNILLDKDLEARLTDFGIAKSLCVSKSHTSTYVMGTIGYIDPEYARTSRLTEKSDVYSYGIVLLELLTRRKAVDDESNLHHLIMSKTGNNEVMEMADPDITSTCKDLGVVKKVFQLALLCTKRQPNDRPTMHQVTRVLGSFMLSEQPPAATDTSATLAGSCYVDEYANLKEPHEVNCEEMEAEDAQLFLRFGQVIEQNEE
Nature of the assay: BLI.

Assay [5] deals with T3, MBP-ER_CD_(T/S8A), phosphonull version (Arabidopsis, UniProt Q42371 602-976, Thr947 (T/S8A) | Ser950 (T/S8A) | Ser954 (T/S8A) | Ser955 (T/S8A) | Ser957 …).
T3 sequence: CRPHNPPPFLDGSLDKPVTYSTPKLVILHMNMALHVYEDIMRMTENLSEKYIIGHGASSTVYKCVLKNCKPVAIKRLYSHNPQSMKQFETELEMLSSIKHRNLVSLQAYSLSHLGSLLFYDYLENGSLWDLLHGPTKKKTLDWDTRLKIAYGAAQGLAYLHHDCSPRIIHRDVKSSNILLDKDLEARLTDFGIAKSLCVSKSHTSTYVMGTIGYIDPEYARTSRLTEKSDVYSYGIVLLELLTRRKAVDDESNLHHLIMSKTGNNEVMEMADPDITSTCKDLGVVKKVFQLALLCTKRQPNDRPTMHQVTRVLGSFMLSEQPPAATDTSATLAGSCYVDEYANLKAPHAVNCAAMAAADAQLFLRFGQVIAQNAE
Put plainly: BLI.

Assay [6] deals with B1. Put plainly: BLI; recombinantly purified GST-BKI1 or GST-PUB30 and MBP-ER_CD variants at seven concentrations (156.25, 312.5, 625, 1,250, 2,500, 5,000 and 10,000 nM); three independent experiments; who was immobilised is in SI Appendix. To be noted: both partners purified.
The target of assay [7] is T4, MBP-ER_CD_(T/S8A), phosphonull version (Arabidopsis, UniProt Q42371 602-976, Thr947 (T/S8A) | Ser950 (T/S8A) | Ser954 (T/S8A) | Ser955 (T/S8A) | Ser957 …).
T4 construct: ERECTA (ER), Arabidopsis, cytoplasmic domain with the eight phosphosites of the C-terminal tail changed to alanine; Tag end from the order of the printed name; source: recombinant, purified; not shown: MBP, N-terminal, kept
T4 sequence (looked up): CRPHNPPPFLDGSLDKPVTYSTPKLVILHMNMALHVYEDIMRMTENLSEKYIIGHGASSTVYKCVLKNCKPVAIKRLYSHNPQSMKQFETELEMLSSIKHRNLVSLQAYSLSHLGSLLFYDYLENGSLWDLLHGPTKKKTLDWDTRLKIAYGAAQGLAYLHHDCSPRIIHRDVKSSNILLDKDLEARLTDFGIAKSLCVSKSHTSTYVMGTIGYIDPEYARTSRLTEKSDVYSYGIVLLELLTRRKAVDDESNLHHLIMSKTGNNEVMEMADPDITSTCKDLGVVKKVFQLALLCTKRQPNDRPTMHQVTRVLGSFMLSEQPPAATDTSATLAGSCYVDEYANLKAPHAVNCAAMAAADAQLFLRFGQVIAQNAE
The assay is described as above. Conditions: both partners purified.

One may read the Kd as the concentration at which binding is half-saturated. “MBP-ER_CD_(ΔCTα-Helix) (domain or fragment)”: the Kd in assay [1] was determined as 47.7 µM; in assay [2], 0.805 µM.
In the case of B1, in assay [3], the Kd came to 0.393 ± 0.048 µM.

B2: GST-BKI1 (BRI1 KINASE INHIBITOR 1) (natural protein, UniProt Q9FMZ0 1-337, looked up)
chain: METNLQQVKNSSQTFSEKQNPKQEASPSPISSTCSSPSHDFSFTISLQPLSSSSKHISPTLRSPSKTTSSYQQTDPFAVDLSPADEIFFHGHLLPLHLLSHLPVSPRTSTGSYNDGFTLPVKDILPDQPTNNNNNTENAITNISTEAKDDNTEDKAEGEIRVKTKPIKSFSLFGLSKWRKGFESNEREQEQQQQKIKKPMSLDLSHAVKKYIRMLFQKRGNGTQFWNRRQTSSYSFSSSLMGPNGNSKTMINGSYNKRDLIRGRRGELFSAPASMRTSPTNSGHLRVSTAGLSSSSGSTSSSSSDSTMEELQAAIQAAIAHCKNSSAVDRDDKVKDS
notes: Tag end from the order of the printed name; source: recombinantly purified; not shown: GST, N-terminal, kept
On to B2, for which the Kd in assay [4] amounted to 18 µM; in assay [5], 3.8 µM; in assay [6], 3.7 ± 0.7 µM. The binding result in assay [7] is recorded as “binds”.

B3: MBP-ER_CD_(T/S8E), phosphomimetic version (domain or fragment, Arabidopsis, UniProt Q42371 602-976, looked up)
chain: CRPHNPPPFLDGSLDKPVTYSTPKLVILHMNMALHVYEDIMRMTENLSEKYIIGHGASSTVYKCVLKNCKPVAIKRLYSHNPQSMKQFETELEMLSSIKHRNLVSLQAYSLSHLGSLLFYDYLENGSLWDLLHGPTKKKTLDWDTRLKIAYGAAQGLAYLHHDCSPRIIHRDVKSSNILLDKDLEARLTDFGIAKSLCVSKSHTSTYVMGTIGYIDPEYARTSRLTEKSDVYSYGIVLLELLTRRKAVDDESNLHHLIMSKTGNNEVMEMADPDITSTCKDLGVVKKVFQLALLCTKRQPNDRPTMHQVTRVLGSFMLSEQPPAATDTSATLAGSCYVDEYANLKEPHEVNCEEMEAEDAQLFLRFGQVIEQNEE
notes: ERECTA (ER), Arabidopsis, cytoplasmic domain with the eight phosphosites of the C-terminal tail changed to glutamate; Tag end from the order of the printed name; source: recombinant, purified; not shown: MBP, N-terminal, kept
For the molecule B3, the binding result in assay [3] is “binds”.

B4: GST-PUB30 (U-box E3 ligase PUB30) (enzyme)
chain: MPMFQPLKRDGLIGFEGGGDGQVLDLDTAVKDGVLGGVNGGGVGVVDEKLDLKKMIKELDLQDIPSVFICPISLEPMQDPVTLCTGQTYERLNIHKWFNLGHLTCPTTMQELWDDTVTPNKTLHHLIYTWFSQKYVLMKKRSEDVQGRAIEILGTLKKAKGQARVHALSELKQIVIAHLMARKTVVEEGGVSVISSLLGPFTSHAVGSEVVAILVSLDLDSDSKSGLMQPAKVSLIVDMLNDGSNETKINCARLIRGLVEEKGFRAELVSSHSLLVGLMRLVKDKRHRNGVSPALRLLKPISVHKQVRSLMVSIGAVPQLVDILPSLDPECLELALFVLDALCTDVEGRVAVKDSANTIPYTVRVLMRVSENCTNYALSILWSVCKLAPEECSPLAVEVGLAAKLLLVIQSGCDAALKQRSAELLKLCSLHYSDTMFISKCKLTRTIQ
On to B4, for which the Kd is 0.194 µM in assay [4] and 9.5 µM in assay [5].
